Columns and labels:
Hu_CRD2 = target: T1, Hu_CRD2 (human, UniProt Q07011 46-86, limits assumed); test: flow cytometry, yeast display
T1 construct: also called human CD137 CRD2
T1 chain: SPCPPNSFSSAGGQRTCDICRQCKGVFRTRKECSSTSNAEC

[1] = target: T2, full-length human CD137 on the cell surface (human, UniProt Q07011 18-255); test: flow cytometry, yeast display
T2 construct: also called Human WT

[2] = target: T3, full-length mouse CD137 on the cell surface (mouse, UniProt P20334 24-178); test: flow cytometry, yeast display
T3 sequence: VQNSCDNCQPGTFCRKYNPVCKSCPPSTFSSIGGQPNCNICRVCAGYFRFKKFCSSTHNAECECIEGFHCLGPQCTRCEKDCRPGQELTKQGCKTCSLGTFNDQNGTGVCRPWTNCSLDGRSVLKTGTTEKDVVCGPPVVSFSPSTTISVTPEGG

Hu_CRD1-CRD2 = target: T4, Hu_CRD1-CRD2 (human, UniProt Q07011 24-86, limits assumed); test: flow cytometry, yeast display [Cont.]
T4 construct: also called two CRD units (CRD1-CRD2) of human CD137

Hu_CRD2-CRD3 = target: T5, Hu_CRD2-CRD3 (human, UniProt Q07011 46-118, limits assumed); test: flow cytometry, yeast display [Cont.]
T5 construct: also called two CRD units (CRD2-CRD3) of human CD137

Hu_GTF34AAA = target: T6, Hu_GTF34AAA (human, UniProt Q07011 18-255); test: flow cytometry, HEK293F cells expressing CD137 or mutant [Cont.]
T6 construct: On HEK293F; also called GFT34AAA
T6 chain: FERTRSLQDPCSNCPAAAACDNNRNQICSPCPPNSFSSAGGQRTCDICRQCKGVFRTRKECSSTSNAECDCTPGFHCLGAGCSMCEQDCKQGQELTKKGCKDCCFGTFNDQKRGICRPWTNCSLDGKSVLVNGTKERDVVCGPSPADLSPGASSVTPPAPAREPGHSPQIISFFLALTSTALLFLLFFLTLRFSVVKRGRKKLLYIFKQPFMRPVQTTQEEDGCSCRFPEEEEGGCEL

Hu_FSS53AAA = target: T7, Hu_FSS53AAA (human, UniProt Q07011 18-255); test: as above
T7 construct: On HEK293F
T7 chain: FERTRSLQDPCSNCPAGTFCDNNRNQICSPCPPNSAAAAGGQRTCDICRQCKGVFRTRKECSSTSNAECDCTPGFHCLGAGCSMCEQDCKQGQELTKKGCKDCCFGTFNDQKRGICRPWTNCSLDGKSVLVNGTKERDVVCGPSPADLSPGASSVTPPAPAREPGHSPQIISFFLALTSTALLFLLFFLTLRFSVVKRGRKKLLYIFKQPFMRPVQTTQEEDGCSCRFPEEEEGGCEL

Hu_FH92AA = target: T8, Hu_FH92AA (human, UniProt Q07011 18-255); test: as above
T8 construct: On HEK293F

[3] = target: T9, CD137-hisFc fusion protein (Sino Biological Cat 10041-H03H) (human, UniProt Q07011 24-186); test: competition ELISA, human CD137-Fc-His coated, biotinylated CD137L as blocked ligand, neutravidin-HRP
T9 construct: Bought; also called recombinant human CD137 (fused with human Fc and His tag); not shown: His tag and human Fc

[4] = target: T10, mouse CD137 fused with human FC fragment (mouse, UniProt P20334 24-178, limits assumed); test: ELISA, coated CD137-Fc
T10 construct: also called mouse CD137-Fc; not shown: human Fc fragment
T10 sequence: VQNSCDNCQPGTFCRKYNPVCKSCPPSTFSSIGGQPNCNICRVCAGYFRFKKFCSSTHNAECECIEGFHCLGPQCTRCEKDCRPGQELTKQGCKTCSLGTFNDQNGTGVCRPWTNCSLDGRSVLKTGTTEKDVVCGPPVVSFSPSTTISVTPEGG

[5] = target: T3, full-length mouse CD137 on the cell …; test: flow cytometry, HEK293F
Hu_R66A = target: T11, Hu_R66A (human, UniProt Q07011 18-255); test: flow cytometry, HEK293F
T11 construct: On HEK293F; also called human CD137 R66A

Hu_F92A = target: T12, Hu_F92A (human, UniProt Q07011 18-255); test: flow cytometry, HEK293F
T12 construct: On HEK293F; also called human CD137 F92A

CD95 = target: T13, CD95; test: flow cytometry, HEK293F cells expressing the receptor, antibody 100 nM [Cont.]
T13 chain: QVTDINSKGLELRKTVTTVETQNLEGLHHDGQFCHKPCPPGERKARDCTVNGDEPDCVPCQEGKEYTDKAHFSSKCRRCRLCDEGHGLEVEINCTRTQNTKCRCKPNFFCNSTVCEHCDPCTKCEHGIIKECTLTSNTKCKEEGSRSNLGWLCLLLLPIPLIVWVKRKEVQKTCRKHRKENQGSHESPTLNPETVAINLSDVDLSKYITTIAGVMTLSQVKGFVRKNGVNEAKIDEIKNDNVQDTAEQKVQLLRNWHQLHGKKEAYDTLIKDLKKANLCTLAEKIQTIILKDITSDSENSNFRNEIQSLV

CD120a = target: T14, CD120a; test: as above
T14 chain: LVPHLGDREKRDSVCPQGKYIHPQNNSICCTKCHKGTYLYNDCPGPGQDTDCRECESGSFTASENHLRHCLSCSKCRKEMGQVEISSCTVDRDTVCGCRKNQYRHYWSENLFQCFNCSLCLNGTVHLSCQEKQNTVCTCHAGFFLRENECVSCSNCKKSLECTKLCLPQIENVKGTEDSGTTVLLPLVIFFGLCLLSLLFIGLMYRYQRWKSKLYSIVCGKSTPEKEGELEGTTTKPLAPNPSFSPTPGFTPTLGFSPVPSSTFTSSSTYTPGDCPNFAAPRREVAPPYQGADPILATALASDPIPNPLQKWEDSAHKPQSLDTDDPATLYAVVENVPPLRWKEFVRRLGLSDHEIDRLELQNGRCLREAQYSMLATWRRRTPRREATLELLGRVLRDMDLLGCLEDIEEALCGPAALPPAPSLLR

B1: AG10059 (antibody, human IgG4 S228P, kappa, V domains shown)
VH: EVQLVESGGGLVQPGGSLRLSCAASGYSITSGHYWAWIRQAPGKGLEWVSSISGYGSTTYYADSVKGRFTISRDNSKNTLYLQLNSLRAEDTAVYYCARGGSDAVLGDWFAYWGQGTLVTVSS
VL: DIQLTQSPSSLSASVGDRVTITCRASQGIGSFLAWYQQKPGKAPKLLIYDASNLETGVPSRFSGSGSGTDFTLTISSLQPEDFATYYCQQGYYLWTFGQGTKVEIKR
% in upper right quadrant (Hu_CRD2): 0.2% | Mean (Hu_CRD2): 6280 | % in upper right quadrant [1]: 25.9% | Mean [1]: 58600 | % in upper right quadrant [2]: 0.44% | Mean [2]: 9890 | % in upper right quadrant (Hu_CRD1-CRD2): 0.31% | Mean (Hu_CRD1-CRD2): 12000 | % in upper right quadrant (Hu_CRD2-CRD3): 0.15% | Mean (Hu_CRD2-CRD3): 7460 | Mean (Hu_GTF34AAA): 893 | binding result (Hu_GTF34AAA): no binding (tested: 100 nM (as in Example 5)) | Mean (Hu_FSS53AAA): 720 | binding result (Hu_FSS53AAA): no binding (tested: 100 nM (as in Example 5)) | binding result (Hu_FH92AA): no binding (tested: 100 nM (as in Example 5)) | IC50 (read off the curve) [3]: ~100 nM

B2: AG10058 (antibody, human IgG4 S228P, kappa, V domains shown)
VH: EVQLVESGGGLVQPGGSLRLSCAASGFSLSTSGVGVGWIRQAPGKGLEWLALIDWDDDKYYSPSLKSRLTISRDNSKNTLYLQLNSLRAEDTAVYYCARGGSDTVLGDWFAYWGQGTLVTVSS
VL: DIQLTQSPSSLSASVGDRVTITCRASQSVSPYLAWYQQKPGKAPKLLIYDASSLESGVPSRFSGSGSGTDFTLTISSLQPEDFATYYCQQGYSLWTFGQGTKVEIKR
Kd [4]: 0.3 nM | Kd [5]: 10.1 nM | binding result (Hu_R66A): no binding | binding result (Hu_F92A): no binding | % in upper right quadrant (Hu_CRD2): 0.24% | Mean (Hu_CRD2): 13200 | % in upper right quadrant [1]: 30.7% | Mean [1]: 64700 | % in upper right quadrant [2]: 41.1% | Mean [2]: 12600 | % in upper right quadrant (Hu_CRD1-CRD2): 0.18% | Mean (Hu_CRD1-CRD2): 3680 | % in upper right quadrant (Hu_CRD2-CRD3): 0.11% | Mean (Hu_CRD2-CRD3): 14600 | Mean (Hu_GTF34AAA): 878 | binding result (Hu_GTF34AAA): no binding (tested: 100 nM (as in Example 5)) | Mean (Hu_FSS53AAA): 778 | binding result (Hu_FSS53AAA): no binding (tested: 100 nM (as in Example 5)) | binding result (Hu_FH92AA): no binding (tested: 100 nM (as in Example 5)) | Mean (CD95): 5370 | Mean (CD120a): 8070 | IC50 (read off the curve) [3]: ~40 nM

Reference: patent US20190055314A1 (ADAGENE, published 2019)
